# According to a protein production outcome set (Wang et al. 2014):
# Experiment: label from the status in PepcDB records
row,Sequence,protein production
1,MNKTLIINAHPKVDDTSSVSIKVFKHFLESYKELISNNETIEQINLYDDVVPMIDKTVLSAWEKQGNGQELTREEQKVTERMSEILQQFKSANTYVIVLPLHNFNIPSKLKDYMDNIMIARETFKYTETGSVGLLKDGRRMLVIQASGGIYTNDDWYTDVEYSHKYLKAMFNFLGIEDYQIVRAQGTAVLDPTEVLQNAYKEVEEAASRLANKYIFSLEE,not failed
2,MNKVLINDTTLRDGEQAAGVVFTLEEKVAIAKFLDTIGVPELEVGIPAMGEEEMRAICAISNLGLKANLLAWNRAVISDIKASVACGMERVHIAIPVSGIQIAAKFHGQWRVSLQRLKDCISFAVDQGLWVAVGGEDSSRADENFLLDVALYAQEWGASRFRFCDTVGVLDPFTTYGKVKLLVSALTIPVEVHTHNDFGMATANALAGIKAGASSVNTTVIGLGERAGNAALEEVVMAIKRIYGVDMGIDTPRLLELSQLVAAASGANVPPWKAIVGENTFAHESGIHAHGVLQNPDTYEPFAPEEVGWERRLVVGKHSGRHSVSNLLEQHGIFLNPEETQSVLDAVRQQSIKKKRSLTTEELLNLVKEQRYSHAAR,failed
3,MNLDALVSWSRAQFALTAMYHWLFVPLTLGLGVIMAIVETIYYRNGKPEWKRYAQFWQKLFGINFAIGVATGIILEFEFGTNWSNYSLFVGDIFGAPLAIEGILAFFMEATFIAVMFFGWNKVSKGFHLSATWLTIIGASLSAVWILIANAWMQEPVGMTFNPDTMRNEMTDFWALVFSSTAINKFWHTISSCWTLGSVFALGVCGIYLLRKDDKHKDFALKNIKIIAPFGLAASLITAFTGDTSAYNVAQKQPMKLAAMEALYDSGQTDKDGLTADGKGLPLSLFGILNPAKETPQDDKEAFLFNVSVPRVLSVLGTRNPSGYVPGINNILEGGYVKADGTTAIPVDSMMQRGRRAIMALNDYSKAKQAGDMEAALQHKSVIDENFPYFGYSYIQHKNDIVPPVGLTYYSFRIMVGLGMLFILLFLMAWLLSFKPEKFSKMRWFHMIAIVCMPLAWVASQSGWIVAEVGRQPWTIQDLLPVQAAVSKLEAGSVIITFFVFLVLFSALLVAELNIMRKAIKKGPETE,failed
4,MNLFRKCLLILGLASPLYLGLGQTSAHAEAVPPLAPTTCQATNLPQPSTAAIRELTPTGTLRVAINTGNYVLATEADDFGPFGISVDIAHLLAKGLGVPSEFTVVQAAAVSFERVSKNLSDIGFFGVDPWRAESVDYTNPYIQIEGAYIVRQDSPILTLADVDRAGIQIVVGKNSVYNLFLDRNIHHAHLVQAPTSPEVTGFMLAHKFPVGAGIRNQLVADMKRYGGLRILSTSFMIIHQAMATGKGRPQGLSYLQSFISELKKSGCIQELITKYAVDDAVVSP,failed
5,MNLFRKISEKLKSYEDWVTEANYYLDEGIYDKAVECYLKALEKKNTNPIDWFNLAYALYHLEKYDSALEAINEALKISPSNIYFAYLKGLIHYKRGEIILAYKYLKKASEKIKNEELFEILGDISVKYGRYEEALKYYLKSYKMANSKNLNALFKAGKIYLLFGDIDKAYDAFNEILQQNPSHECKKIVECMENVVNAINSYEDLNNGLTMIKNKDYIGALKIFNKVLQIDENSDISYYYKSVIAEIFEEYKKALEYIDKSISIFNRSLYYAKKGDILYKLGDEEGAIEAYNKAIKLNSQNPYAYFGLAILYYRKGELEKSSNFFDKVLETYLEELSEEDISALNLYSLIGKAETTGIPKYYHEAMKYVDNLINLENSSRWWYVKGYIYYKLGNYKDAYESFMNALRVNPKDISTLKSLAIVLEKSGKIDEAITTYTKILKIVNSLQFTCEIDNILEKLRSRKPTNLEIPSVLFDIPVMYHKPNITCFYASNLWKYMANNNPIGAYIYLSFIESYISLDEISQMVNDIKSKLSLEMYRYCELIDDYKSDESVLMQIKELLQKLGCML,failed
6,MNLFRSERGALALLLGVSALILLLGLGSRELWGPETRWANIALQMLQSGDYFDPYLKGAPYYDKPLPSYWLITASAWLMGGLGHWSLRLSSVIAAWLSIWLVYLIGERLFHKGTGLIAGWMLATTFYFAFWARVATADVLTVCGVLAAVWWYWRGPEDTRLGRYTVFFLILAATSLLKGLIGFVLPGLILLPHLLSQGRWKRHLNLRLVLALSIAALFYMVPFVLSHLYGAPSYGESGLSLVFRENVVRFFNPFDHVGPIYTYLIYLPAYTLPWAPCWILGLWLAARHWRQLQPNERWLVWALGLLFLFFTASGSRRSYYVLPLVPFAQLLGAWWLNRRLQLRQAVGKPVSRGWPLGFSCAALVMLLVLGVAYPWSNSGGGVMQFSADTRAAASRIAPWNQWRMVMVEIDNKLPMYLQNQGAPFYYVAETADFPRNGSSADFMAWLDKTSGQHWDPQRTLIFVQQKHDEPLMLGYLGEDHQLVRTTPTNGERLAKKPAQGSVAFIPRIPGN,failed
7,MNLFYRCRFFLFNNKVKNRGRGNKVVTNSASAKACTILFNGNNNTVILGESASLRGCLIIMSGDDHVLEIGAHTSIYKSNIAFEDHHCLISIGDYTTIQENGGISAVEPYSKIIIGKRCMFSVDVDIRNTDSHSIIKLDTGERINPGKNIFIDDKVWLGAYVQVLKGVSIGNNSIVGIRSLVTKDIPSHALAVGVPAKVIKTNVDWREERI,failed
8,MNLHTKTWVQRLPVPIDVAWDFFSQPGNLARITPPEMMLKAEGGNAGTAIYEGMKLNFVLYPFMMIPVRWTTEIMKVSKPDFFEDRQLSGPYEQWYHRHLFRDIEGGTEMTDIVEYALPFDLFGEVVEALIVGPRLDEVFEYRRCRVAEILGEMASETRLEHHHHHH,not failed
9,MNLIINDKTASSSVGQTIGKAARLNHAHVGYVCGGHGLCQACYITVQEGADCLAPLTDVEKAFLSPRQIAAGGRMACQATIAKEGTVKVLSRPEEVRRMVFSNPFQLIGYAADMGKDTAQQIVPGVQNLIGRIQRGEMGGKDALGDMIESIQGAAGLVVEAIQQGPMALPIPFKEQIADLISKLPLPQIQLPSISLPQLPSISFPQLPFSLPKLPFSLPFLPQQPQATASLEKVTITVQPPAKD,failed
10,MNLILTILSALGSFIVTNVDDIFVLMLLFSQARSQAKTGNSGIVSMESKGNRIYPRDIVIGQYLGFALLVLISLLATFGVTLIPDQWVGLLGLIPIYLGVKLFIKGEDEDEGNILSNLNKFNKFYLSVAFITFANGGDNIGIYVPFFSTLNNNQLIITVVTFFIMVAVWCLIGYRLARFRYVSETLEKYGRWIIPIVFIGLGIYIMVENETFRAILSLVN,failed
11,MNLLRHAVAGLCLVASAGCSGQDVMVRKQSEMETRLEHLHQASTTSGVRLAELSAEVTALRERLAAQGAELEQIKAGQRELQANITERLAQVAPAAGTPSRIEVVSRDGAPREKDGPPDAYLKAFGLYSANNFAGAVEAFQAFLAEHPDSEYAGNALYWIGECHYSRSDLPRALDAFRLVAERYPASTKVPDALLKSGYTLYAMKEPERAREILESLAAKYPRSPAAAKARERLAVATPKKQ,failed
12,MNLLTNEKTIKVFSSLIYTSLIISLIAMIFDVKLASKIFNTIGIISAILLFINKREIKKESMLIPLSILFLCVTNLIWEQLYKNSGSEIIGLYHSYHNVMKILFLGSSLTLFVMTFSSKHPLTKNALNIIYTIPFFLVLYYLLSEPEVRFSISDKIATSSAYMISFIGILTSQVILLKTEKRNLFFYFINHIIFFTIIVLSGTRAAILAYPLLSAIVLIPAILKDKKINLKLIILYIMVNIVCLVACQKTIMSRSENLISDINMYNQSNSESSVGARIAMYRSGLTSFIHAPMGQSAESRQLDIQKQAEQNPSLSGAALLTGIHLHNELIEAISLKGIIGGMALLLLYASLFYFSSFILKDYALTSLTLSLVIYGLSDVIFYGKNATTVWIVTYCLSILLVKRNRGVQ,failed
13,MNLLVIGGHERMEKDYMVMAKKKGYKTKVYTTMSSKLNNSIGRPDAVVILTSTVSHKMSRTVESQAKKQDILIVRHKNSSKVAFNECLDMVDECLGNCSKCKLKDKQKQKNILEHHHHHH,failed
14,MNLPMTMSLQTVSFEEFITTIAAALGCGLLVGLERERSKLKHEYKTFAGFRSFAISSLLGAICFLFGTAIGIVGALLIGAISIVSLKNQPNDPGVTTELAFIMTYFIGALCIWNISLAAGLAVIMTIILLAKQSMHGIASQWITESELRDGIFLLALLLIALPLVPNKPFWGPVLNPHVILKLLTLILFVQALAHIAKRLLSSKNALLLSSLASGFVSSTATIASLGLEVRSGRANAKTNAGAALMSCVSTLVQTLIIVVGISLAWFKLIIFPTLIALAFLAVWAFILLRKAEPSTTSPELDSRMFSLKEAVIIAGTLTLIQAGVYGLSLYLGNAGLIAGTLLASLFEIHAAIAAVIVQGEPNNSQTSLLIAFMGGFAVHAIAKSINSAISGGLHYALAFIPAQILHMTIFIGLLWMNIHWF,failed
15,MNLRLAAALCAALSLCAVLAVPANFPALGGDARLTLAVFALATCAWIGTPIDDTYIALGAGLALTATGVISSDTLFGTLGEDTVWLLICAFVLAAAVARTGLAGRAAAFLVGGARTVRQLVHLTTAALVVTAFAMPATSGRAALALPVFLALAKVLADRKRLVVMLALLFPTVILLSAVATLIGAGAHLITVSVLWEATGDRIGFTQWLLLGLPLAVASSHLAAETVLLTTTRRADRAGPVRITAEEIQRHSESPVTGPWTQAEKRCALLLATVVALWCSEPLHRVSPAVVALIGAVVASSPALGTVRLKDALKTVPWSLLLFMAATMAMGVALADSGAAGWLVSGLPADVAPAVFLGVVVAVSTAAHLVLQSRSARSSVLVPLVIAAAVGAGVNPVAAALASTAAAGFCHTLPASAKPVTLFSDVPGVPTYTPRDLLRLSAVLAPLTALLVLFFAAAVWPLLGVPVTR,failed
16,MNLYFRLFWLLFWRTRHCRKIDFLGTSRITYRALPSDCDINFHLTNSRYPAFMDLARTYMLAEMGLLKRFLKLKWMPIVNAAEFTYIRDIKPLKKFEIETKVVGWDEKYFYIEQRFISERGLHCIVHVRGVFVCKGKQIPLEVLVKEAGYTAPAPELPPEVVKWKAFLQLKKERNL,failed
17,MNMKFTKILVQIAALYVFYMVGTWVQEMLNIPIPGSLIGMFLLLVLLSLKVLPVKWFDLGAETLVAIMPFLLIPPTLGLMNYGAFFMSKGISLFITVVASTFLIIIVAGHTGQYLANRKERESR,failed
18,MNMLIDISTEILMSLLFFYLFYRIMVKGTNGVIEILVEAMMFSMFVGLILYFQTRITFTTASMAVDMPMAIMGGAVAWAYFTRNSSMTTSRKSAFISLLISNEVAMAYFLTIITYPNIISHGVFYTLVHSVSSYLFIASMEIEMILSLLFLEKDSIKKIVFSGVVFSGLFNPFFMPQSNFSLYGTIYFTAVMVFFMAILFEIIAVKFDTMNFGKIVMITLFFGLMGFSAAGLFASIVFGSLITLLLFDISMMAQMAFYFYFLFRNTEIRGRPGWSYNRYSMFYVLLFSFAAEWLASASIISVVNGVNGVVPFLSNFGVGVYSGIVPAILNAIFIFGSVTNSYVFLIIMGVEMASLVIVRIGRLRWKEKNGISHSP,failed
19,MNMLVINGTPRKHGRTRIAASYIAALYHTDLIDLSEFVLPVFNGEAEQSELLKVQELKQRVTKADAIVLLSPEYHSGMSGALKNALDFLSSEQFKYKPVALLAVAGGGKGGINALNNMRTVMRGVYANVIPKQLVLDPVHIDVENATVAENIKESIKELVEELSMFAKAGNPGV,not failed
20,MNMNHYRPVILADQRVVSDFELDPLTRKISIKILQGHEQGNKGMVDTLRQNLQQRLGVPVEIPLALMNHLVKLVRDGNEVITATLAAGNDINEDGKAASYQVIDAEPGDHTGVQVGLAIDIGTTTVVVYLVNMVNGDIIAKASDYNGQIKLGDDILSRIMAAREEKGLQELQALIVNTLNALIQQLCLEAELKPQAITGVCIGANTTMVHLCLGLDPGSICRAPYRPAVNNAGIFCAGEIGLAVHPLAPTYCLPSIGSYIGGDVLAGILVSGMHKQEEVALLADIGTNGEFILGNQEWLVGCAGAAGPALEGGVTEWGIRAEQGAVDQVSIDSEHHVGYTTIDNAPARGICGSGLIDSLAELFLNGLINRAARFTDGRERFTIVPADESATGKEIFISQKDINSLMRTKGAVNAALEVLMESVGCQWEEIAKFYAAGAFGQYLPIESAVTIGLYPDLPREQMLRLGNSSGEGARQVLLSNSKRQEIEEIAGKITYFEMNASSSFMDKYGGSRFLPHTNMDLFPSVQEKLAVRQRSRC,failed
